Targets include MS2 coat protein W32A (bacteriophage MS2, UniProt P03612 2-130, W33A); MS2 coat protein WT (bacteriophage MS2, UniProt P03612 2-130); MS2 coat protein N55D (bacteriophage MS2, UniProt P03612 2-130, N56D).
Test in all cases: FP

B1: 5' fluoro MS2 SL (structured_RNA)
RNA: CCUACAUGAGGAUUACCCAUGUU
In the case of B1, the binding result with MS2 coat protein W32A is “no binding”; in the data set with MS2 coat protein WT it was “binds”; with MS2 coat protein N55D, “no binding”.
